Values quoted from earlier work in publication PMC3310959.

Molecular target: E-cadherin (Mus musculus) (UniProt P09803)

Kd: 97 µM
Substance: E-cadherin (from UniProt P09803)
